Type in all cases: biochemical, Quillaja saponaria
The nature of experiment [1]: Experiment 6-1: screening of rhamnosidases for derhamnosylation of saponins in treated bark extract (2%), desglucosyl-QS-17 2134 to QS-21 1988 (PAR %). The settings on record: TBE 2%, pH 7.5, 30 degC, 18 h; TIC peak area ratio percent, LCMS/MS; negative controls 2.719, 2.158.
A short description of experiment [2]: Experiment 6-1: specificity of rhamnosidases towards other rhamnose residues (C3 saccharide rhamnose, C28 saccharide rhamnose). The conditions noted are these: TBE 2%, pH 7.5, 30 degC, 18 h; LCMS/MS; negative controls 0.18, 0.17.
Experiment [3] is described as follows: Experiment 6-1: screening of rhamnosidases for derhamnosylation of saponins in treated bark extract (2%), QS-17 2310 to QS-18 2164 (PAR %). The conditions noted are these: TBE 2%, pH 7.5, 30 degC, 18 h; TIC peak area ratio percent, LCMS/MS; negative controls 3.061, 2.429.
Experiment [4] can be described thus: Experiment 6-1: screening of rhamnosidases for derhamnosylation of saponins in treated bark extract (2%), QS-17 2296 to QS-18 2150 (PAR %). The settings on record: TBE 2%, pH 7.5, 30 degC, 18 h; TIC peak area ratio percent of rhamnosylated starting saponin to derhamnosylated product, LCMS/MS; negative controls 4.876, 5.225.

B1: 1047 (protein, listed as Brachybacterium faecium)
chain: MSSHTAQHVLDALTHPDPAARPMMRWWWFGPDMDRAEIDRELRAMAAAGLGGAEIALVYPLRPGAPDYLGDEALGHVRHAAERARELGLRLDVTLGSGWSYGGPHIGPEQAARRLRWERRDLGPQPLSWPLTPSWPGDELVSVHLGEGLPPSGWTRLDPVGERLEIPAGRGPRTVLLAWSEVTGQQVKRSAAGAEGPVVDHLSATAVRHHLDVVGGALLSAVPAHLLGSVFSDSLEVYDAGWTAALPEQFRQRRGYDLLPVLHLLEVDAPGAEQVREDYGLTLSELVEEGFVGTCRAWAEEHGVRFRLQGYGQPPITLSAQRGAHLIEGEGAGWTALTQSRWASSAAHLDRREVVSSEVWTWVRSPAFRAAPLDLLGEAHEHLLLGITHFVGHGWPYTAPDAPGLGWTFYAAGALDDRNAWWPAMPELTAHLTRLCAALRLGAPGAEVALYLPYADVRAARGRGHDLWAACRAHIGEQLPAAIRRAGYDLDLLDDDALAALDPAAYPVVVLPRVSRLPAETRRWLDRVRAAGGSVLAVDSPAYPAGQQLSLPEEDGDDARLRDHATLAMVGARGGSDAEGEEGADGEGADGEAAGGKNPLAAALRGAHTPPLLLSGDGGEVGTVHRRLADGDLHLLAHTGPRRREVEVTPRDPRRALALHDPAEPGLRPLPSTGARLVLHPYQAVLLLATDQPLPAPDGAAPATDAAHGPAQTGTAEPEPIALDGPWTASRPGEAPRAVTLPHLLTGQDAADLRPLLLETTVTLDEDTARGPLVLDLGPGRAVPHTGEGSGYRALLEPPVREIAVLEVDGEELGVLWRPPYRIALTGRLRAGTSRLRLRIHGTTAAAAALPENAEAAAGQVAAAHETYGERFQPQELERMLDGVATGLASVPVLRRAGG
In the case of B1, the “Peak75 (PAR %)” value in experiment [1] is listed as 2.456%. For the same molecule, the “ratio PP/QS-21” value in experiment [2] is on record as 0.17. Moreover, the “Peak57 (PAR %)” value in experiment [3] is 3.332%. Also, the “QS-17 (PAR %)” value in experiment [4] is 4.669%.

B2: 1032 (protein)
chain: MRYIFFLGLLAASLTAFAQTAPTNLRTDLLLHTDKVWSNGFLTNYTLDGADSAKFAGQLALIRSSRPSFSWVLSTAGGTSRQTAYRLILSTSRQKNQADAGDVWDSGKVMSSQSVGILLPASQKLDTNRIYFWKVKVWNERNLESDFSQPKAFRTAPRLTAYETPFYPLVKTEEAPRSQRTLAGQRIVYDFGKDAFGQAFLTVSSASESDTLIVHLGEAVTADGHVNEKPSGTLRYRQIRVPLQKGTHRYAIQFKPDKRNTGPKAILMPDYIGEVLPFRYVELAFNPATRIEQIVRQVVTYPFDDSATTFSSSDSTLNQIWDLCKHTIKATTFTGYYVDGDRERIPYEADALLNQLSHYATDAEYNMAKRSLNYLVFHATWPTEWSLQNVLIAWYDYLYSGDSRTVEALYPELKAKLLLPLARPDGLISTRTGLQTPEFKKSIHYDTFDGRPTIQDIVDWPQQGVLGLGKKEAGETDGFVFTDYNAVVNAFHYQGLVFMAQLASRLGKTDDAAFYANRAGLVRKAFQATFIHPKTGLVRDGEGTDHASLHANMMALAFGLVPEKLQSQVLAHIRSRGMACSVYGSQFLLDALYNANESAYGLALMTSTDERSWYNMLRTGSTMTTEAWDTRYKPNQDWNHAWGSAPANIIVRKLMGVEALTLAYETVQIKPQPDTLRQASLQVATLRGPISVAFDNTPDRFVLRTTLPANTNGVVYLPRKKTKSQVLQNGKSVKAAVEGNFWKITSVGAGTHEWEVR
modifications: Spirosoma linguale
Consider B2, for which the “Peak75 (PAR %)” value in experiment [1] is 2.411%. The “ratio PP/QS-21” value in experiment [2] amounted to 0.17. The “Peak57 (PAR %)” value in experiment [3] is listed as 3.044%. For the same molecule, the “QS-17 (PAR %)” value in experiment [4] was 4.730%.

B3: 1038 (protein, listed as Formosa agariphila)
chain: MILHKSVFKSYIYVLTYFVFFSVMSCENSSVLQEAKHLTISEGFKNPLGFYDAKPTFSWELPVVEGVISQSAYQIVVASSPDLLPNNPDLWDSNKQSSSQSVWINYEGKPLVSRQKVFWQVKYWNQDDKASNWSPVQNFELGLLNNSDWKAKWIGLPTKEEGVLGSQDNIIHRPQYLRKVFELSNDVANARLYITAKGVFDVAINGEDVSDDVMPPGYTPYKKRIETITYDVTDLIESGQNTIGVEVAAGWHSGRLGWMKSYWSDTESPKILCQLEVTMKDGSKASIISDDTWKATTQGPIRISEIYDGETYDAHLEMPHWTTNSFDDKNWKAVQAFPVTSTIKLEPKRHTTVKSKIVLESKEIILKADAAIFDLQQNMVGVPLLKVPMKMGDTLKIRFAEMLSPDGTFYTDNYRSAQSTDYYIAAKEGTIEWMPKFTFHGFRYVELSGFDASKTPSKNWVKGVVQYSNFNENGSFTSSHEKLNQLQSNIVWGLRGNFFDIPTDCPQRDERMGWTGDAQVFGPTSMFNADVYKFWASWMQSVRESQYDNGGIPFVVPDVLHNGKVSSGWGDVCTIIPWKIYYRTGDVGILEENYDMMKKWVAHHQATSKDFISHMNSFADWLQPYPENGNNKGDTSHSLIGTAFFAHSAKLTAKTAEVLGKKEEQATYEALYKSVAKAFENAFFKNGKVKDVTATQTSYLLALAFDLLSEENKENAKQQLLEKISEADNHLRTGFLGTPLLSEVLDETGEIDLMYKLLFNETYPSWFYSINQGATTIWERWNSYSKAEGFNPMKMNSLNHYAYGAIGEWMYERITGIAPLQAGYKIISIAPIPKAPLTSASATLNTPYGEVASSWEIKNETLFLEVVVPPNTTAEIEIPTDNSESLKVDNENFTNGKNLKLIKNEKRKIKILAQPGTYEFQAKYSL
For the molecule B3, in experiment [1], the “Peak75 (PAR %)” value is 2.512%. In addition, in experiment [2], the “ratio PP/QS-21” value was 0.18. The “Peak57 (PAR %)” value in experiment [3] worked out at 2.913%. Further, the “QS-17 (PAR %)” value in experiment [4] was 4.725%.

B4: 1057 (protein, listed as Parabacteroides goldsteinii)
chain: MKVDITKIFTILFVIAFAGCLLQSCNSSINGLEQGFFNPPDSVRPGVYWYFMDGNLSKEAMTKDLESMKEAGIGHVVYLEVNVGVPRGSVDFLSDEWQEMFAHAVAECERLGIDITLGVGPGWTGSGGPWVEGAQSMMHLVSSSVNVSGKGKKTIALPKPSPKPHFFAEDNFTPESKKRWEEYYEDVAVLAFPAGASTFGTDYEAGSAYLRITGIEEKALYYRKPYSSVTQVKPYLTFGKDSFTVQTVDKDCIIDLTDHLEIDGTLTWEVPEGDWTIMRFGARNNGAVTRPAPHPGVGLETNKFDTTALNAHLDKFVTKLFNRVGFKKAQPQGGLQMLHMDSWEMGAQNWTTHFREEFTKRRGYDPQPFYPVYAGFIVQSREESERFLWDLRVTSQELIKEYHAGHIKSYGKRYGLGLSIEPYDMNPTADLELASVADMPMCEFWSVGYGYNTSFSAMEGTSVAHLLGQPVVPAESFTAYLDGWRQHPGSMKNQTDWALASGINRLMFHTFQHQPLNDRLRPGMTMGPYGVHWDRNQTWWPMADAYHRYISRCQLLLQQGRTVADILYLTPEGAPHVFRAPISALEGDLLDTDNLFNFRNETPLPDRKGYNFDACPPSLFYDAQVKDGKVVFPSGVSYRLLVLPCFETMTPELLEKIRDLVNGGATVVGLPPQKSPSLVNYPVCDEKVRVLVQELWGGYEIPETVEIRSIGKGKVIWSKELLEQQDNLYPTYEYTADILAKMDVHEDFESTGEIRYTHRTMKGYEIYFVSNRKDSPVTVNCKFRMTGHPELWNPMTGEIRPLAEYTVTGVHTTIPLLFDANEGYFIVFRDNTFQREIQTKKNFPDSRRVASLTAPWSVSFDPAWGGPEQVTFEKLTDWTQHPDSGIRYYSGTAIYRQTFDRPADNSKQQFLDLGKVKNLARVRLNGQDLGVVWTAPWRVEITKALKLKDNQLEIEVVNLWPNRLIGDEQLPDDGIRNGEWPEWLKDGGPRTSGRYTFTTYKHFTKESPLLESGLLGPVTIWGIDN
For the molecule B4, the “Peak75 (PAR %)” value in experiment [1] is reported as 2.498%. Moreover, in experiment [2], the “ratio PP/QS-21” value was determined as 0.15. Besides, the “Peak57 (PAR %)” value in experiment [3] was found to be 3.213%. For the same molecule, the “QS-17 (PAR %)” value in experiment [4] is recorded as 4.670%.

Values taken from patent publication US20240026407A1, “MODIFICATION OF SAPONINS” (GLAXOSMITHKLINE BIOLOGICALS SA, priority 2020, published 2024).
